The nature of the data set: soluble fraction after stress (log2 fold change); higher = more stays soluble; pooled small domains, quantitative proteomics. Conditions: stress: pH 4. Summed up: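 Aggregation propensity here comes from the fold change in the soluble amount of each small protein domain after acid stress, measured in pooled custom libraries by high-throughput quantitative proteomics. The acid stress was pH 4. On the log2 scale, higher values mean more of the domain stayed soluble.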
Turning to “HMTFEAKKGYINADMSVNVRETASTSATVIITLNPNTEVKVVGEENDFYKIEYKEYKGYVAKRLISDSQVQ”, the “soluble fraction (log2)” value is -0.142.

Turning to “HMTFPTEAKLTGDKVFVRSGPSTQSQRLTNLAINSVVTVLAREMGDMQYPWYKVRYSDGEGWVYGQYVEAI”, the “soluble fraction (log2)” value was determined as 0.122.

As for “HMTFTQFAESHGVIIKSLKASDKIQRGPTVAHPKSDNGAWLWDGNRGGVMAWDGDGQWYWFK”, the “soluble fraction (log2)” value was -0.108.

As for “HMTGEERRMNTADLYRRRGMELFKRKIYVDAIDSLKVSLEYEDNATTRYYLDLATKRYQDLKIS”, the “soluble fraction (log2)” value was -0.0891.

For the sequence “HMTGETWAERSRALAAAGLIVMGQEAKNKIEDLPSLSPLIEAAAASETRLLTGQIIDELLAFV”, the “soluble fraction (log2)” value is -1.04.

On to “HMTGIELLSHREHQVYDLLTQGRTVTEIGAQLNLAPNTVSTYRARILEKTGTKNDVELALYAQRH”, for which the “soluble fraction (log2)” value is -0.114.

“HMTGKASEIAALLEQRIAAGDYPAGSKLPSERELAASFHVSRNTIRDAIALLAARKIVSTKWGAGTVVLG”: the “soluble fraction (log2)” value is -0.0946.

As to “HMTGLRETIPAALDGERLDRVVALLGDVSRSRASAALEAERVTLDGEVVTLRSHRVREGEELTVAGFE”, the “soluble fraction (log2)” value stood at 0.177.

“HMTGLSAQILAKLRDNHGVLPVSDKSDPAVISNLFGVSKGNFKKAIGGLYKEGQIVIHADRIEL”: the “soluble fraction (log2)” value was found to be 0.302.

With “HMTGLSFEEKDLLGNALKLLDETERRIVILHATSGLKHREIAKQLDIPLPTVLSKYTRAIKKLKKHME”, the “soluble fraction (log2)” value was -0.144.

Take “HMTGPSYTTRRVEAAETMMEFLRTFPQAAPFIGDLYVKAQDWPLGEEIGDRLKKMLPPQLQE”: the “soluble fraction (log2)” value is -0.451.

With “HMTGQVASMVERLAQRLKDQPQDAEGWAMLARSYSVLGRHPEALQAYEKALALRKDDANLLADYADSLA”, the “soluble fraction (log2)” value was -0.729.

Take “HMTGRHEEAIQELKRTLELHPQKPKIFLLLGVSYLRLNNLKKAVEAFNTVLLLQPKNQKALTMLKEIKKR”: the “soluble fraction (log2)” value was -0.113.

As for “HMTGSLLVEVQGRPDADRLLGQALVDAGLTARPAGGALIEVEVRDETTPDVVRDLTVDLGLGLVRMQERH”, the “soluble fraction (log2)” value was -1.01.

Consider “HMTGSLRIKHKTYYMLFSWKDESGQWRQKSESTGIPERGGKRKAQEMLNTRLEELQLQSTASL”, for which the “soluble fraction (log2)” value is 0.199.

On to “HMTGSLRVTSSPSGAEIYVDEIYRGYTPLTIGSLSTGRHEVRLHLSGYQDYTRTVEIESGSQSSFSVTLT”, for which the “soluble fraction (log2)” value worked out at 0.0547.

“HMTGSTSVAQVSTPSGSLNLRAYASTSARVLLQIPEYAFVTVYNRGATWSYVSYNGVSGYVMSVYLSFGG”: the “soluble fraction (log2)” value was -0.846.

In the case of “HMTGTVKVNSLNVYKSASLDSEVKDTLVLNTKVTIAENGQVTDGIYVWGRLQSGEGYVQMNNLTL”, the “soluble fraction (log2)” value is -1.59.

As to “HMTHRRLELTLDAIDERLDRALTAAVPELSRMQWQRLIREGLVTVDGERARPSYRIQGGETLVALVPEV”, the “soluble fraction (log2)” value was -0.167.

As for “HMTIAEGLIFRFTEPFKPIDQYTYYIMGDNKVEQIPNFKTLEVMLAQRNQNYLSVRVIEKSQLDDILKEF”, the “soluble fraction (log2)” value is -1.73.

For “HMTIDETKKQQVKDGLKDIPGVTVEFVGDKAVLKGAVTDANRVKIMQIVMAAKVLSDASGLTSK”, the “soluble fraction (log2)” value turned out to be 0.237.

Turning to “HMTIDTSNDLLNQITEATSKGPISILELKDQLNVNASDIEGELRTLIDQHLVFLKDGMLQVIPFD”, the “soluble fraction (log2)” value was -0.423.

In the case of “HMTIEEMAIENINFSTQLLYKAMKYNGVNTVGDLLEKARSKKDLLTMAYIGNKEAEEIIEKLSELGITI”, the “soluble fraction (log2)” value was -1.84.

Regarding “HMTIFGWQQDETGKWYRNADGTFYENGWKEIDGAQYYFDENGYVTTGWLELDGKDYYFDEEGKYDSTKVR”, the “soluble fraction (log2)” value is -1.25.

With “HMTIGPALAIGGNKVEMTQQGKIQVTNPQGKIKTLSQDEFKKQLVKNADKIEAGQDFEFKKD”, the “soluble fraction (log2)” value was 0.339.

Take “HMTIKLFPNPSTDFIRVSELSAKENYKIYTILGSEIKRGSVSNNETIDIRNLNSGVYLLKFDNGTTKKIVK”: the “soluble fraction (log2)” value worked out at 0.124.

In the case of “HMTIKTAFPAEDLAKPDNFKSLLYYFGLLTIRGTKWGSTLLAIPNLTVREQLYSYLVEAYRSADL”, the “soluble fraction (log2)” value was determined as 0.244.

Take “HMTILKEGMSGPEVERLQDALKRHGFDPGRVDGQFGPGTEAAILAFQKSEGLRADGVAGPKTQQALGLE”: the “soluble fraction (log2)” value is 0.155.

Take “HMTIRLKELRKQKGNTQAEVAKILGTNQSQYGKYENERTQLSLDNAKILSDYFGVSVPYLLGLDDNP”: the “soluble fraction (log2)” value is -0.486.

With “HMTISDTAYQAFLEQLGVGMVVEHKRFGEGVITGMPKGKIRITFEEGTKSFQARALAESGMLK”, the “soluble fraction (log2)” value was -0.824.

With “HMTISIAEQIFEQLEREILSGAYPRGELLTETKLSEKLGVSRTPIREALRRLDQEHIIKMTTKGAFVLGI”, the “soluble fraction (log2)” value came to 0.198.

Take “HMTITIGNSDGGYMKMGADGFEVRFSGSDGGNHYAKMYYNNDGWARLTLGSYGEEKARIDSDGMIQTR”: the “soluble fraction (log2)” value worked out at 0.208.

For “HMTKEAIAQKLRIARQESGLTQKDVSAKIGRPQQTIASWEVGRSQPDADTLYSLLLLYKVSPNTFFEYD”, the “soluble fraction (log2)” value was -0.237.

With “HMTKEEIVVNWLPRYTKRNLEDFGEYILLTNFNKYVEIFAEKFNVPILGRDANMISASAEGITIIN”, the “soluble fraction (log2)” value was -0.359.

For “HMTKEEREKREKYEKLMKKAEELTAAKNHREVINVLGQAKAYATAAQLKEIEEKIKAATSEMNK”, the “soluble fraction (log2)” value came to 0.257.

As to “HMTKEGVNISITADGVQLSTESPNRVSIFNVNGTKVWEGIAPANVSLQKGVYILQTANGNTKFV”, the “soluble fraction (log2)” value is -0.407.

“HMTKLLITNYERNVLINSYLLKNTPELDDIRRLLVHNKHISENDVSTEMARRIKKHKADWLRVT”: the “soluble fraction (log2)” value was 0.00962.

On to “HMTKLTPLEVNLYAKKLANDPEFGSKHIEPGESFSQAEERLRVQLSQQEYVQKYSKYLKKLKASA”, for which the “soluble fraction (log2)” value was found to be 0.0433.

“HMTKPAEVRIDELMNAAQTLFLAKGVEATTISEIIASVGVAKGTFYHYFESKQHIVEALKKRYID”: the “soluble fraction (log2)” value is -1.03.

Turning to “HMTKQNVVPLMYRMIDTLEQFIKADVPFNIETRLARVERLRETMVSSSVTTSEKFRQVLEAYTIETD”, the “soluble fraction (log2)” value is -1.53.

“HMTKSEWLRESREHLGLSQTDLRNLLNTALNRSYDKSRISRWENSKENIPAEVVKQIESLIATR”: the “soluble fraction (log2)” value came to 0.406.

Turning to “HMTKTRTEILEYLKQNWSVTVSASDIKKHLEEKEIKANTTTIYRYLDKLLAEHVIIKYADAGSERAVYQYS”, the “soluble fraction (log2)” value was -0.687.

Regarding “HMTKVIEFLVSDEEHGVRADKAFVSHNQKLSRSYFKKLILNGNLYINNKVNLDPSYKLIKGSTVRIILPE”, the “soluble fraction (log2)” value is -0.698.

In the case of “HMTKVKIDRLFSIVQMLVNRKSVTAKELADYFNVSVRTIYRDIEILSANGIPIYATQGKGGGISILEN”, the “soluble fraction (log2)” value was -0.663.

On to “HMTKYEGLSLDLIIDGVVITHNLKLAKLDMNWLLDRLKENGWDNPKDIFYAYIDTAGNFRFQPKLKASRTR”, for which the “soluble fraction (log2)” value was -0.906.

On to “HMTKYREVLRMSAGGFSQRVIASTLSISRNTVASTLKRAREQNLDWEAVEQQRLSEKDIANLLFP”, for which the “soluble fraction (log2)” value turned out to be 0.293.

Consider “HMTLAEEFNNLNGKVITRETLESLLVKAEKEQNSTISNRIRKVLQAYTADTFLIELQHTESA”, for which the “soluble fraction (log2)” value was -0.0269.

With “HMTLALKQGSTGSTVKQVQQKLKNWGYYSGAVDGIFGSGTRKAVVLFQKRNKLTADGIVGSKTLEALGIYV”, the “soluble fraction (log2)” value was found to be 0.0782.

As for “HMTLDDSIALGRSLLDKGLMDFGTNLANLAEDKLRDFLSQQRYENLDDLFADIARGNRLPMFTAQQLLS”, the “soluble fraction (log2)” value is -0.481.

As to “HMTLDVALSKEIKYMLKEEHYLPGDKLPSERKLAELFHVQRLTVRGALNLLLQDKTIISKPRSGYYVAPKR”, the “soluble fraction (log2)” value was found to be 0.225.

As to “HMTLFDESGYTARELEIIREVANGLSNKEIADKLFLSEGTVKNYITGILAKENLSHRTALAVYYLTGRK”, the “soluble fraction (log2)” value is -0.558.

In the case of “HMTLHEAMEKLFRQVGRPMTTKEIAEKLNENKWYQKADGSPLTPYQIYGRAKNYPALFHREGSIIYLKGS”, the “soluble fraction (log2)” value was 0.136.

As for “HMTLKTISLTEAIKNTNEGNYSKLVLDGNELTITEQGKETPSLKTYTEPGTSLKEQGFDLSKVEFEAREQS”, the “soluble fraction (log2)” value is -0.011.

Regarding “HMTLNQEELMGKTEAILFAGGEPVSLDRIAQVLGVRTPVIDSIVSALQEKYNTPTSGIQLMRL”, the “soluble fraction (log2)” value is -0.467.

“HMTLPELTDRELQILQLLSVGNSSQKIAKQLNISTHTVSTHRKQLLRKLGAQNGADLIRRAQKLGIL”: the “soluble fraction (log2)” value came out at 0.0897.

Consider “HMTLQEFYARVGGDYNATLSRLPSEALVKKFILKYPGDPSFAQLKDALAAQDWELAFRASHTLKGVAQN”, for which the “soluble fraction (log2)” value is -0.493.

“HMTLSAPMPGTVLKIHVKEGQRVRKGQTLVVLEAMKMEHRIQAPKAGEVTNLHFSEGDRVDMGEILVEIG”: the “soluble fraction (log2)” value is -0.905.

With “HMTLSDDEFEIIKSLIIDTLKEEALTINALTKKINHKEAKTIQVIRFLLDNGLVAENNLMKLFVI”, the “soluble fraction (log2)” value is -1.54.

For “HMTLTIEDQLRRLRARLGRGRAFLFSDVLVNPHDRTEIAVTLLALLELIKRREAQASQSYLFGPIEVAAA”, the “soluble fraction (log2)” value is -1.33.

Turning to “HMTLTLEQAAAIKNSEGEQYGKIESERLAAMSVQIDKAIKSNGHDPNKKADLERKLDAIGIILNARAAG”, the “soluble fraction (log2)” value was -0.0482.

On to “HMTLVKRSAMVTAWSEFAGGRVNSKLIALQNGKAGDWIELENPQSGRKLRGRVQSDGSVRLGS”, for which the “soluble fraction (log2)” value turned out to be 0.017.

On to “HMTLYITDQMRKILDYVATNQEIDEKAVMDLLSIQRTRAYLIAKKMTDIGLLQVQGRGKTKTYRLAARS”, for which the “soluble fraction (log2)” value was -0.285.

As to “HMTLYQIGDKVVHPMHGAGVIDSVVQRKVSGQVQEFYLLKLSVGNMVVMVPTDNTGEIGMRP”, the “soluble fraction (log2)” value is -0.777.

For “HMTMEQAEFLSRQFNLLSQRLNDPSIEWQDIADLRSEYTGEDEHRDTIRKGAKLFYEYLEAGWIKN”, the “soluble fraction (log2)” value was -0.867.

As to “HMTMKNPNGYGSVINLGKGRRRPWAARVTTGLVYDEKKDKLIQRYKYIGYADTRKEAHQILAEYNAGLPI”, the “soluble fraction (log2)” value was determined as 0.0906.

With “HMTMMTFGEKLQNARKGAGLSQEQLAEKLSVSRSAVAKWENDNGMPDIDNLKAIAQLLDVSIDYLLEN”, the “soluble fraction (log2)” value is -0.71.

As to “HMTMNLIEIGHVVGARRAELGLTQAQLAHLSGLSRQTVVGLEKGTLSDLGVNRVGQVMAVLGLDS”, the “soluble fraction (log2)” value is -0.242.

With “HMTMPDFGYMRVSYAEARRQLQAIGISVSTIEKVEDPSHTSATGDMVISQYPAAGSKIEGTVTLYVSVAS”, the “soluble fraction (log2)” value stood at 0.332.

As for “HMTMSFSELLRGLRKSRGMSQAELATAVGLSQAQVSQIETGKLLPSPELIEKLAALYGIALGSA”, the “soluble fraction (log2)” value came out at 0.0703.

These data come from the domain aggregation screens of Martell et al. (2025).
